Reference: patent publication US20200079850A1 (SUTRO BIOPHARMA, published 2020)

T1: human LAG3-Fc (R&D Systems #2319-L3) (human, UniProt P18627 23-450)
T1 construct: Bought protein; also called Human LAG3 (Biacore)
T1 sequence: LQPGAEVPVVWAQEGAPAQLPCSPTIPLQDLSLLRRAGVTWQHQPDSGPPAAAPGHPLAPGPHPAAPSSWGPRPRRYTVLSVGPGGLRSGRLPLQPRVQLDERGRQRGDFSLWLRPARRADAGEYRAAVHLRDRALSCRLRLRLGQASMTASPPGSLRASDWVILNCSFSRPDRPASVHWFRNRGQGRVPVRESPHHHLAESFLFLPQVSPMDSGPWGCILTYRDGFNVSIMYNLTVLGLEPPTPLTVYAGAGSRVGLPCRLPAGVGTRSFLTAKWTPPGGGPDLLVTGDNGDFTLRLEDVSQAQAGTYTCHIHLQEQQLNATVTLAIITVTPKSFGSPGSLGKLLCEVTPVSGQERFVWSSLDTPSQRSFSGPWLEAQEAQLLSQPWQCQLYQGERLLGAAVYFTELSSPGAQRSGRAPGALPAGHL

T2: human LAG3 expressed on the cell surface (CHO-LAG3, 293T-LAG3 cells) (human, UniProt P18627 23-525)
T2 construct: Stably transfected CHO or HEK293T cells; also called Human LAG3 (CHO); Human LAG3 (293T)
T2 sequence: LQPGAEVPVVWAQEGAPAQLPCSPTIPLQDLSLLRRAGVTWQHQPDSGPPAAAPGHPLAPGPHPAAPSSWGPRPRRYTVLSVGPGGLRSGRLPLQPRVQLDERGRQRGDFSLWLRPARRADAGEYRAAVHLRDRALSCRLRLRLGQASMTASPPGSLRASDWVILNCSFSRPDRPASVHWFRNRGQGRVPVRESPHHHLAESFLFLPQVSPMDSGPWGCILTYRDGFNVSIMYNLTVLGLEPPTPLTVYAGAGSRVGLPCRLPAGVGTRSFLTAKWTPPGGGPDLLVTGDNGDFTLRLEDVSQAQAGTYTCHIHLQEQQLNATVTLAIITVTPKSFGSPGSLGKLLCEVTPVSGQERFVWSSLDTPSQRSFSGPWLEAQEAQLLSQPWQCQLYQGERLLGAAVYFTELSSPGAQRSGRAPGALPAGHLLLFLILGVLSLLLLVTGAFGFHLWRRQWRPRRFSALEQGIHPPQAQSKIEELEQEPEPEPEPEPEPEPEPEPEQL

T3: recombinant human LAG3 protein (rhLAG3), HIS-tagged (ACRO) or biotinylated (R&D Cat #2319-C3) (human, UniProt P18627 23-450, biotinylated in part of the assays)
T3 sequence: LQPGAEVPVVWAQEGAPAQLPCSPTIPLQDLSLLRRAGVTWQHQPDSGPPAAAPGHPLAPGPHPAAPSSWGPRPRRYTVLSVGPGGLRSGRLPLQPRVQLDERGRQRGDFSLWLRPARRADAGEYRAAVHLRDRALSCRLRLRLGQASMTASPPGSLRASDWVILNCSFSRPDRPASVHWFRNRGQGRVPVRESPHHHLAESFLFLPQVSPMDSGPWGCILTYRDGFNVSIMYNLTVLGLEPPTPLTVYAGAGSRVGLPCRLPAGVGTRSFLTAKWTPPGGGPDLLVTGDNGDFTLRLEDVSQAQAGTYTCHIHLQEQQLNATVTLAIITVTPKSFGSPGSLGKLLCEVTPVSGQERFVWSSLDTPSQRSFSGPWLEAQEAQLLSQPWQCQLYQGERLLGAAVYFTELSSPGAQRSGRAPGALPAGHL


Columns and labels:
[1] = molecular target: T1, human LAG3-Fc (R&D Systems #2319-L3); assay: SPR (Biacore), antibody captured by anti-Flag, LAG3-Fc as analyte, 25 C
Method: Anti-Flag M2 IgG (Sigma-Aldrich # F9291) was immobilized onto a CMS chip (GE Life Sciences) using amine coupling chemistry (from Amine Coupling Kit, GE Life Sciences). The immobilization steps were carried out at a flow rate of 25 μL/min in 1×HBS-EP+ buffer (GE Life Sciences; 10×Stock diluted before use). The sensor surfaces were activated for 7 min with a mixture of NHS (0.05 M) and EDC (0.2 M). The Anti-Flag M2 IgG was injected over all 4 flow cells at a concentration of 25 μg/mL in 10 mM sodium acetate, pH 4.5, for 7 min. Ethanolamine (1 M, pH 8.5) was injected for 7 min to block any remaining activated groups. An average of 12,000 response units (RU) of capture antibody was immobilized on each flow cell.
Off-rate and kinetic binding experiments were performed at 25° C. using 1×HBS-EP+buffer. Test and control antibodies were injected over the Anti-Flag surface at concentrations of 5-10 μg/mL for 12 seconds at a flow rate of 10 μL/min on flow cells 2, 3 and 4, followed by a buffer wash for 30 seconds at the same flow rate. Kinetic characterization of antibody samples was carried out with a single concentration of antigen (for off-rate ranking) or a dilution series of antigen (for kinetic characterization) and 1 injection of 0 nM antigen. After capturing ligand (antibody) on the anti-Flag surface, the analyte (human LAG3-Fc, R&D Systems #2319-L3; or cynomolgus LAG3-Fc, accession # NC 022282.1) was bound at 50, 25, 12.5, 6.25, and 0 nM for 180 seconds, followed by a 600 second dissociation phase at a flow rate of 50 μl/min Between each ligand capture and analyte binding cycle, regeneration was carried out using 2 injections of 10 mM glycine pH 2.0 for 30 seconds at 30 μL/min, followed by a 30 second buffer wash step.
The data were fit with the Biacore T200 Evaluation software, using a 1:1 Langmuir binding model. KD (affinity, nM) was determined as a ratio of the kinetic rate constants calculated from the fits of the association and dissociation phases.

[2] = molecular target: T2, human LAG3 expressed on the cell …; assay: flow cytometry, 293T cells expressing human LAG3
Method: LAG3 antibody variants were tested in a fluorescence-activated cell sorting (FACS) cell-binding assay. Chinese Hamster Ovary (CHO) cells or HEK293T cells stably expressing the human target molecule LAG3 on the cell surface (CHO-LAG3, 293T-LAG3) were used to screen for cell binders by flow cytometry. Parental CHO or 293T cells were used as a negative control to determine background-binding levels. Cells were cultured in RPMI with 10% FCS Penicillin/Streptomycin (or Pen/Strep) and glutamine (or Gln) and split every 3-4 days at 10⁵ cells/ml.
A mix of parental CHO cells and CHO-LAG3 cells (or 293T and 293T-LAG3 cells) was prepared as follows: Parental CHO cells were washed 2× in PBS then incubated in PBS containing 1 nM CellTrace™ Oregon Green488® (Life Technologies) at 37° C. for 30 minutes. […] Parental CHO cells and CHO-LAG3 cells were then mixed to obtain a 1:1 cell suspension and seeded at 100 μl per well on 96 well polypropylene plates. Plates were spun at 1500 rpm for 5 minutes and cell pellets were suspended in 50 μl FACS buffer containing 6-12 point dilutions of anti-LAG3 variants starting from concentrations of ˜100-200 nM antibody, dispensed using BioMekFX (Beckman Coulter). Cells were then incubated on ice for 1 hr, washed with FACS buffer and incubated for 1 hr on ice with 50 μl FACS buffer containing 2.5 μg/ml R-Phycoerythrin-conjugated Goat Anti-Human IgG (Jackson ImmunoResearch) or AF647-conjugated Goat Anti-mouse IgG (Life Technologies) dispensed using BioMekFX (Beckman Coulter). Cells were then washed 2× with FACS buffer and fixed for 10 minutes in 200 μl PBS with 2% PFA prior to fluorescence detection. Samples were acquired using a Beckton Dickinson LSRII FACS. Mean Fluorescence Intensity of LAG3 antibody binding was analyzed using Tree Star, Inc. FlowJo® software.

[3] = molecular target: T3, recombinant human LAG3 protein …; assay: flow cytometry competition, rhLAG3 binding to Daudi cells; competitor MHCII
Method: DAUDI cells express high levels of Major Histocompatibility Class II (MHCII) molecules, a natural ligand for LAG3, on the cell surface. DAUDI cells were used to screen for antibodies that inhibit binding of HIS-tagged (ACRO) or biotinylated recombinant human LAG3 protein (rhLAG3) to MHCII expressed on the cell surface.
DAUDI cells were cultured in RPMI w/10% FCS Pen/Strep and Gln and split every 3-4 days at 10^5 cells/ml. Cells were washed 2× with FACS buffer (PBS w/2% FCS), […] at a final concentration of 1×10⁶ cells/ml and seeded at 100 μl per well on 96 well polypropylene plates. Plates were spun at 1500 rpm for 5 minutes and cell pellets were suspended in 50 μl FACS buffer containing 8 point 1:3 dilutions (2× concentrated) of anti-LAG3 antibody variants, starting from high concentration of −600 nM. 50 μl FACS buffer containing 10-20 μg/ml of the HIS-tagged rhLAG3 protein or 40 μg/ml of the biotinylated rhLAG3 protein were then added to the cells. Cell were then incubated in ice for 1 hr, washed with FACS buffer and incubated for 1 hr in ice with 50 μl FACS buffer containing 2 μg/ml R-Phycoerythrin-conjugated Streptavidin (eBiosciences) or 1 μg/ml R-Phycoerythrin-conjugated anti-HIS IgG (Abcam). Cell were washed 2× with FACS buffer and fixed for 10 minutes in 200 μl PBS w/2% PFA prior to acquisition.

Binder | Kd [1] | koff [1] | kon [1] | Kd [2] | IC50 [3]
SRP1627-A11 (scFv, V domains shown) VH: QVQLVQSGAEVKKPGSSVKVSCKASGFNINDYFMHWVRQAPGQGLEWIARIDPWNGDTEYAPKFQGRVTITADESTSTAYMELSSLRSEDTAVYYCGMSDALDYWGQGTLVTVSS VL: DVVMTQSPLSLPVTLGQPASISCKSSQSLLDSDGKTYLNWFQQRPGQSPRRLIYLVSKLDSGVPDRFSGSGSGTDFTLKISRVEAEDVGVYYCWHGINFPQTFGQGTKVEIK | 13.5 nM | 0.00422 s⁻¹ | 312000 M⁻¹ s⁻¹ | 0.74 nM | 1.6 nM
SRP1627-B01 (scFv, V domains shown) VH: QVQLVQSGAEVKKPGSSVKVSCKASGFNITDLYMHWVRQAPGQGLEWIARIDPWNGDTEYAPKFQGRATITADESTSTAYMELSSLRSEDTAVYYCIASEMVDYWGQGTLVTVSS VL: DVVMTQSPLSLPVTLGQPASISCKSSQSLLDSDGKTYLNWFQQRPGQSPRRLIYLVSKLDSGVPDRFSGSGSGTDFTLKISRVEAEDVGVYYCSTYSHFPQTFGQGTKVEIK | 14.7 nM | 0.0152 s⁻¹ | 1.04e+06 M⁻¹ s⁻¹ | 0.19 nM | 0.4 nM
h5G11-2 (scFv, V domains shown) VH: QVQLVQSGAEVKKPGSSVKVSCKASGFNIKDYYMHWVRQAPGQGLEWIAWIDPENGDTEYAPKFQGRVTITADESTSTAYMELSSLRSEDTAVYYCNAPDALDYWGQGTLVTVSS VL: DVVMTQSPLSLPVTLGQPASISCKSSQSLLDSDGKTYLNWFQQRPGQSPRRLIYLVSKLDSGVPDRFSGSGSGTDFTLKISRVEAEDVGVYYCWQGSHFPQTFGQGTKVEIK | 863 nM | 0.0023 s⁻¹ | 2670 M⁻¹ s⁻¹ | 78 nM | 
SRP1627-A02 (scFv, V domains shown) VH: QVQLVQSGAEVKKPGSSVKVSCKASGFNINDYFMHWVRQAPGQGLEWIARIDPWNGDTEYAPKFQGRVTITADESTSTAYMELSSLRSEDTAVYYCGMSDALDYWGQGTLVTVSS VL: DVVMTQSPLSLPVTLGQPASISCKSSQSLLDSDGKTYLNWFQQRPGQSPRRLIYLVSKLDSGVPDRFSGSGSGTDFTLKISRVEAEDVGVYYCSHGNPVPQTFGQGTKVEIK | 43.3 nM | 0.071 s⁻¹ | 1.64e+06 M⁻¹ s⁻¹ | 0.97 nM | 1.7 nM
SRP1496-B08 (antibody, V domains shown) VH: EVQLVESGGGLVQPGGSLRLSCAASGFNINDTYIHWVRQAPGKGLEWVGIIDPYDGATDYADSVKGRFTISADTSKNTAYLQMNSLRAEDTAVYYCAREIFGFYWNPFDYWGQGTLVTVSS VL: not shown | 21.3 nM | 0.0279 s⁻¹ | 1.31e+06 M⁻¹ s⁻¹ | 39.4 nM | 28.6 nM
SRP1496-A03 (antibody, V domains shown) VH: EVQLVESGGGLVQPGGSLRLSCAASGFNINDTYIHWVRQAPGKGLEWVGIIDPYDGATDYADSVKGRFTISADTSKNTAYLQMNSLRAEDTAVYYCAREIFGFYWNPFDYWGQGTLVTVSS VL: not shown | 18.9 nM | 0.0234 s⁻¹ | 1.24e+06 M⁻¹ s⁻¹ | 40.6 nM | 41.3 nM
SRP1496-A04 (antibody, V domains shown) VH: EVQLVESGGGLVQPGGSLRLSCAASGFNINDTYIHWVRQAPGKGLEWVGIIDPYDGATDYADSVKGRFTISADTSKNTAYLQMNSLRAEDTAVYYCAREIFGFYWNPFDYWGQGTLVTVSS VL: not shown | 15.2 nM | 0.0196 s⁻¹ | 1.29e+06 M⁻¹ s⁻¹ | 35 nM | 55.8 nM
SRP1648-B07 (antibody, V domains shown, IgG scaffold with human constant domains) VH: EVQLVESGGGLVQPGGSLRLSCAASGFNIADTFIHWVRQAPGKGLEWVGIIDPYDGDTDYADSVKGRFTISADTSKNTAYLQMNSLRAEDTAVYYCAREILGFYWNPFDYWGQGTLVTVSS VL: not shown | 2.46 nM | 0.0275 s⁻¹ | 1.12e+07 M⁻¹ s⁻¹ |  | 4.5 nM
SRP1648-E02 (antibody, V domains shown) VH: EVQLVESGGGLVQPGGSLRLSCAASGFNINDNYIHWVRQAPGKGLEWVGIIDPYDGFTAYADSVKGRFTISADTSKNTAYLQMNSLRAEDTAVYYCARESIGFYLNPFDYWGQGTLVTVSS VL: not shown | 2.27 nM | 0.122 s⁻¹ | 5.35e+07 M⁻¹ s⁻¹ |  | 4.1 nM
